Reference: patent publication US20210163624A1 (Memorial Sloan Kettering, published 2021)

Assays:
[1] = target: T1, Biotinylated single chain WT1 peptide/HLA-A0201 complex (recombinant, refolded) (human, biotinylated (site not stated)); assay: kinetic binding analysis, sensorgram in nm against time (sec) with fit; column kd [1/s]; Error in kd 1.12E-4
T1 construct: also called WT1/A2; HLA-A0201/WT1 peptide complex

[2] = target: T2, WT1-A1 heteroclitic peptide (tyrosine at position 1 of RMF)/HLA-A0201 complex on T2 cells (human); assay: flow cytometry, live T2 cells pulsed with graded WT1-A1 peptide
[3] = target: T3, HLA-A0201 molecule on T2 cells alone (no peptide pulsed) (human); assay: flow cytometry, live T2 cells without peptide (0 µg/ml group)
T3 construct: No exogenous peptide; It is also the MHC partner in the T2 stabilization assay; also called T2 alone; HLA-A2 molecule

[4] = target: T4, RHAMM-R3 peptide/HLA-A0201 complex on T2 cells (human); assay: flow cytometry, live T2 cells pulsed with graded RHAMM-R3 peptide
T4 construct: also called RHAMM-3; R3/HLAA0201

[5] = target: T1, Biotinylated single chain WT1 …; assay: kinetic binding analysis, sensorgram in nm against time (sec) with fit; column ka [1/Ms]
[6] = target: T1, Biotinylated single chain WT1 …; assay: kinetic binding analysis, sensorgram in nm against time (sec) with fit; column kD [M]
[7] = target: T1, Biotinylated single chain WT1 …; assay: kinetic binding analysis, sensorgram in nm against time (sec) with fit; column kd [1/s]; Error in kd 2.25E-5
[8] = target: T3, HLA-A0201 molecule on T2 cells alone …; assay: flow cytometry, scFv phage on T2 cells without peptide
[9] = target: T5, RMF peptide (…)/HLA-A0201 complex on the cell surface (human); assay: flow cytometry, scFv phage on T2 cells pulsed with WT1A peptide; scFv phage on T2 cells pulsed with WT1-A (RMF) peptide, 50 µg/ml
T5 construct: Either on T2 cells pulsed with the synthetic peptide, or naturally processed and presented on WT1+ HLA-A0201+ tumour cells; The assay field of each row says which; also called WT1p/A2 complex; WT1/A2

[10] = target: T4, RHAMM-R3 peptide/HLA-A0201 complex on …; assay: flow cytometry, scFv phage on T2 cells pulsed with RHAMM-3 peptide
[11] = target: T6, EW peptide/HLA-A0201 complex on T2 cells (human); assay: flow cytometry on T2 cells pulsed with EW peptide
T6 construct: also called Ewing sarcoma-derived peptide

[12] = target: WT1A1-B peptide (…)/HLA-A0201 complex on T2 cells (human); assay: flow cytometry, T2 cells pulsed with WT1-A1-B peptide
[13] = target: T4, RHAMM-R3 peptide/HLA-A0201 complex on …; assay: flow cytometry, T2 cells pulsed overnight with graded RHAMM-R3 peptide
[14] = target: T3, HLA-A0201 molecule on T2 cells alone …; assay: flow cytometry, T2 cells without peptide (0 µg/ml point)
[15] = target: T2, WT1-A1 heteroclitic peptide (tyrosine …); assay: flow cytometry, T2 cells pulsed with WT1-A1 peptide
[16] = target: T5, RMF peptide (…)/HLA-A0201 complex on …; assay: radioimmunoassay with 125-I-labeled WT1 ab1 on JMN cells, Scatchard analysis (bivalent IgG1, avidity)
[17] = target: T5, RMF peptide (…)/HLA-A0201 complex on …; assay: flow cytometry, scFv phage on T2 cells pulsed with WT1A peptide
[18] = target: T3, HLA-A0201 molecule on T2 cells alone …; assay: T2 stabilization assay, HLA-A2 detected with mAb BB7
[19] = target: T4, RHAMM-R3 peptide/HLA-A0201 complex on …; assay: phage ELISA on the recombinant R3/HLA-A0201 complex (R3), not on cells

B1: mAb 5 (mAb clone 5) (antibody, V domains shown)
VH: QVQLQQSGPGLVKPSQTLSLTCAISGDSVSSNSAAWNWIRQSPSRGLEWLGRTYYGSKWYNDYAVSVKSRITINPDTSKNQFSLQLNSVTPEDTAVYYCARGRLGDAFDIWGQGTMVTVSS
VL: not shown
notes: The legends call it mAb 5 or mAb clone 5; also called Ext002 #5
For B1, the koff [1] was 0.00548 s⁻¹, the binding result [2] was “no binding” and the binding result [3] was “no binding (tested: mAb concentration not on the sheet)”. For the same binder, the binding result [4] was “no binding”, the kon [5] was 468000 M⁻¹ s⁻¹ and the Kd [6] was 11.7 nM.

B2: mAb 15 (mAb clone 15) (antibody, V domains shown)
VH: QVQLVQSGAEVKKPGESLKISCKGSGYNFSNKWIGWVRQLPGRGLEWIAIIYPGYSDITYSPSFQGRVTISADTSINTAYLHWHSLKASDTAMYYCVRHTALAGFDYWGLGTLVTVSS
VL: DIQMTQSPSTLSASVGDRVTITCRASQNINKWLAWYQQRPGKAPQLLIYKASSLESGVPSRFSGSGSGTEYTLTISSLQPDDFATYYCQQYNSYATFGQGTKVEIKR
notes: The legends call it mAb 15 or clone 15; also called Ext002 #15
For B2, the kon [5] was 245000 M⁻¹ s⁻¹, the koff [7] was 0.00188 s⁻¹ and the Kd [6] was 7.68 nM.

B3: scFv phage clone 15 (scFv)
scFv: DIQMTQSPSTLSASVGDRVTITCRASQNINKWLAWYQQRPGKAPQLLIYKASSLESGVPSRFSGSGSGTEYTLTISSLQPDDFATYYCQQYNSYATFGQGTKVEIKRSRGGGGSGGGGSGGGGSLEMAQVQLVQSGAEVKKPGESLKISCKGSGYNFSNKWIGWVRQLPGRGLEWIAIIYPGYSDITYSPSFQGRVTISADTSINTAYLHWHSLKASDTAMYYCVRHTALAGFDYWGLGTLVTVSS
notes: also called Ext002 #15
B3: no binding [8]; binds [9].

B4: scFv phage clone 18 (scFv)
scFv: QSVVTQPPSVSVAPGKTARITCGRNNIGSKSVHWYQQKPGQAPVLVVYDDSDRPSGIPERFSGSNSGNTATLTISRVEAGDEADYYCQVWDSSSDHVVFGGGTKLTVLGSRGGGGSGGGGSGGSLEMAEVQLVQSGGGVVRPGGSLRLSCAASGFTFDDYGMSWVRQAPGKGLEWVSGINWNGGSTGYADSVRGRFTISRDNAKNSLYLQMNSLRAEDTALYYCARERGYGYHDPHDYWGQGTLVTVSS
notes: also called Ext002 #18
B4: no binding [8]; no binding [10]; binds [9].

B5: WT1 ab1, full-length human IgG1 (antibody, V domains shown)
VH: QMQLVQSGAEVKEPGESLRISCKGSGYSFTNFWISWVRQMPGKGLEWMGRVDPGYSYSTYSPSFQGHVTISADKSTSTAYLQWNSLKASDTAMYYCARVQYSGYYDWFDPWGQGTLVTVSS
VL: not shown
notes: No single sentence says that WT1 ab1 is clone #13; also called Mab WT1 ab1; ESK1
B5: no binding [11]; no binding (tested: mAb concentration not on the sheet) [12]; no binding (tested: mAb 1 µg/ml; peptide 50 µg/ml) [13]. For the same binder, the binding result [14] was “no binding (tested: mAb 1 µg/ml)”, the binding result [15] was “no binding (tested: mAb concentration not on the sheet)” and the Kd [16] was ~0.2 nM.

B6: scFv phage clone 3 (scFv)
scFv: QTVVTQPPSASGTPGQRVTISCSGSSSNIGSNYVYWYQQLPGTAPKLLIYRSNQRPSGVPDRFSGSKSGTSASLAISGPRSVDEADYYCAAWDDSLNGVVFGGGTKLTVLGSRGGGGSGGGGSGGGSLEMAQVQLVQSGAEVKKPGSSVKVSCKASGGTFSSYAISWVRQAPGQGLEWMGGIIPIFGTANYAQKFQGRVTITADESTSTAYMELSSLRSEDTAVYYCARRIPPYYGMDVWGQGTTVTVSS
notes: also called Ext002 #3; EXT002-3
B6: no binding [8]; no binding [10]; binds [17].

AMFPNAPYL [WT1A1-B peptide (AMFPNAPYL)]: binds [18].

YMFPNAPYL [WT1-A1 heteroclitic peptide (tyrosine at position 1 of RMF)]: binds [18].

B7: scFv phage clone 23 (scFv)
scFv: QSVLTQPPSVSGAPGQRVTISCTGSSSNIGAGYDVHWYQQLPGTAPKLLIYGNSNRPSGVPDRFSGSKSGTSASLAISGLQSEDEADYYCAAWDDSLNGYVFGTGTKLTVLGSRGGGGSGGGGSGGGGSLEMAEVQLVETGGGLLQPGGSLRLSCAASGFSVSGTYMGWVRQAPGKGLEWVALLYSGGGTYHPASLQGRFIVSRDSSKNMVYLQMNSLKAEDTAVYYCAKGGAGGGHFDSWGQGTLVTVSS
notes: also called Ext002 #23; EXT002-23
B7: no binding [19]; no binding [8]; binds [9].
